Biological target: EGFRvIII (full length, expressed by cells: NR6 M, H1477, 300.19/EGFRvIII) (human, UniProt P00533 298-1210)
Experiment: cell-based or functional assay

Row | Binder | %内在化
1 | SC-EGFRvIII-XG1-211 (antibody, human IgG1, V domains shown) VH: QVQLVESGGGVVQPGRSLRLSCVASGFTLSSYGMHWVRQAPGKGLEWVAVTSYDGSKKDYADSAKGRFTISRDNSKNTLYLQMNSLRAEDTAVYYCVSEGYCSSSSCYKYYYYGMDVWGQGTTVTVSS VL: DIVMTQSPLSLPVTPGEPASISCRSSQSLLYRNGNNYLDWYLQRPGQSPQLLIYLGSNRASGVPDRFSGSGSGTDFTLKISRVEAEDVGVYYCMQALQTPRTFGQGTKVEIK | 21.6%
2 | SC-EGFRvIII-XG2-170 (antibody, human IgG1, V domains shown) VH: QVQLQQSGPGLVKPSQTLSLTCAISGDSVSSNNAAWNWIRQSPARGLEWLGRTYYRSKWYNDYVVSVKSRITINPDTSKNQFSLQLNSVTPEDTAVYYCVRATAFDYWGQGTLVTVSS VL: AIVLTQTPLSSPVTLGQPASISCRSSQSLVHRDGNTYLSWLQQRPGQPPRLLIYKISNRFSGVPDRFSGSGAGTDFTLKISRVEPDDVGVYYCMHTTQLPWTFGQGTKVEIK | 20.1%
3 | SC-EGFRvIII-XG1-139 (antibody, human IgG1, V domains shown) VH: EVQVLESGGGLVQPGGSLRLSCAASGFTFSSYAMSWVRQAPGKGLEWVSAISGSGGSTNYADSVKGRFTISRDNSKNTLYLQMNSLRAEDTAVYYCAGSSGWSEYWGQGTLVTVSS VL: DIQMTQSPSSLSASVGDRVTITCRASQGIRNNLAWYQQKPGKAPKRLIYAASNLQSGVPSRFTGSGSGTEFTLIVSSLQPEDFATYYCLQHHSYPLTSGGGTKVEIK | 80.8%
4 | SC-EGFRvIII-XG1-250 (antibody, human IgG1, V domains shown, also called sc250; SC250) VH: EGQLLESGGGWVQPGESLRLSCAASGFTFSSYAMSWVRQAPGKGLEWVSAISGSGGSTNYADSVKGRFTISRDNSKNTLYLQVNSLRVEDTAVYYCAGSSGWSEYWGQGTLVTVSS VL: DIQMTQSPSSLSASVGDSVTITCRTSQGIRKNLGWYQQKPGKAPKRLIYAASSLQSGVPSRFSGSGSGTEFTLTISRLQPEDFATYYCLQHHSYPLTFGGGTRVEIR | 16.7%
5 | AB-EGFRvIII-XG1-095 (antibody, human IgG1, V domains shown) VH: QVQLQESGPFLVKPSQTLSLTCTVSGGSISSGGYYWSWIRQHPGKGLEWIGFIYYRGNTYYNPSLKSRVTISVDTSKNQFSLKLSSVTAADTAVYYCARDGYCSRTGCYGGWFDPWGQGTLVTVSP VL: DIVMTQTPLSSPVTLGQPASISCRSSQSLIHTDGNIYLSWLQQRPGQPPRLLIYKISNRFSGVPDRFSGSGAGTDFTLKISRVEAEDVGVYYCMQGTQFPITFGQGTRLEIK | 72.4%
6 | SC-EGFRvIII-XG2-150 (antibody, human IgG1, V domains shown) VH: QVQLQQSGPGLVKPSQTLSLTCAISGDSVSSYSSAWNWIRQSPSRGLEWLGRAYHRSRWYYEYAVSVKSRINITPDTSKNQFSLQLNSVTPEDTAVYYCARGSRFDYWGQGTLVTVSS VL: DIVMTQTPLSSPVTLGQPASISCRSSQSLVHRDGNTYLSWLQQRPGQPPRLLIYKISNRFSGVPDRFSGSGAGTDFTLKISRVEAEDVGIYFCMHTTQFPWTFGQGTRVEIK | 20%
7 | AB-EGFRvIII-XG1K-13.1.2 (antibody, V domains shown, Human IgG1 kappa from a XenoMouse G1 hybridoma; Residue numbers of the mutants count on this running numbering) VH: QVQLVESGGGVVQPGRSLRLSCAASGFTFSSYGMHWVRQAPGKGLEWVAVIWYDGSNKYYVDSVKGRFTISRDNSKNTLYLQMNSLRAEDTAVYYCARDGWQQLAPFDYWGQGTLVTVSS VL: not shown | 82.5%

Biological target: T1, EGFRvIII PEP3 peptide conjugated to OVA (EGFRvIII肽-OVA) (human, Cys 14 coupled to maleimide-activated ovalbumin (peptide:OVA 14.5:1))
T1 construct: also called EGFRvIII peptide-OVA; VIII-pep-OVA
T1 peptide: LEEKKGNYVVTDHC
Experiment: binding to pep3 (XenoMax screen)

Row | Binder | binding result
8 | SC-EGFRvIII-XG1-250 (antibody, human IgG1, V domains shown, also called sc250; SC250) VH: EGQLLESGGGWVQPGESLRLSCAASGFTFSSYAMSWVRQAPGKGLEWVSAISGSGGSTNYADSVKGRFTISRDNSKNTLYLQVNSLRVEDTAVYYCAGSSGWSEYWGQGTLVTVSS VL: DIQMTQSPSSLSASVGDSVTITCRTSQGIRKNLGWYQQKPGKAPKRLIYAASSLQSGVPSRFSGSGSGTEFTLTISRLQPEDFATYYCLQHHSYPLTFGGGTRVEIR | binds
9 | SC-EGFRvIII-XG1-131 (antibody, V domains shown, Recombinant human antibody (XenoMax)) VH: QVQLVESGGGVVQSGRSLRLSCAASGFTFRNYGMHWVRQAPGKGLEWVAVIWYDGSDKYYADSVRGRFTISRDNSKNTLYLQMNSLRAEDTAVYYCARDGYDILTGNPRDFDYWGQGTLVTVSS VL: DTVMTQTPLSSHVTLGQPASISCRSSQSLVHSDGNTYLSWLQQRPGQPPRLLIYRISRRFSGVPDRFSGSGAGTDFTLEISRVEAEDVGVYYCMQSTHVPWTFGQGTKVEIK | binds

Reference: CN1930187A (ABGENIX INC, dated 2007)
